Reference: the supplement of paper PMC7877785
± gives the uncertainty stated by the source.

Assay: self-splicing fitness, log relative to wild type (ln ratio); higher = more splicing; Tetrahymena group I intron in knt gene, E. coli kanamycin selection, DiMSum; sequences stand for … in CUCUCU…GGAGGGAAAAGUUAUCAGGCAUGCACCUGGUAGCUAGUCUUUAAACCAAUAGAUUGCAUCGGUUUAAAAGGCAAGACCGUCAAAUUGCGGGAAAGGGGUCAACAGCCGUUCAGUACCAAGUCUCAGGGGAAACUUUGAGAUGGCCUUGCAAAGGGUAUGGUAAUAAGCUGACGGACAUGGUCCUAACCACGCAGCCAAGUCCUAAGUCAACAGAUCUUCUGUUGAUAUGGAUGCAGUUCACAGACUAAAUGUCGGUCGGGGAAGAUGUAUUCUUCUCAUAAGAUAUAGUCGGACCUCUCCUUAAUGGGAGCUAGCGGAUGAAGUGAUGCAACACUGGAGCCGCUGGGAACUAAUUUGUAUGCGAAAGUAUAUUGAUUAGUUUUGGAGUACUCGUGGUCG
Outline: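 Fitness was computed with DiMSum as the error-weighted combination of replicate fold changes, kanamycin versus none, each normalised to wild type. The library randomised all eight intron nucleotides of the P1ex region, with the intron placed in the knt kanamycin-resistance gene on pET-22b(+) in E. coli BL21(DE3). Six replicate transformations were grown overnight at 37°C or 30°C on LB agar with or without 25 μg/mL kanamycin, plus 100 μg/mL carbenicillin, 50 μM IPTG and 0.2% rhamnose. Pooled colonies were amplicon-sequenced on an Illumina HiSeq 2500.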

| Sequence | self-splicing fitness (ln) (30 °C) | self-splicing fitness (ln) (37 °C) |
| --- | --- | --- |
| AUGUAGCAAUAUUACGAAUU | -2 ± 0.12 | -1.84 ± 0.16 |
| CAAAAGCAAUAUUACGUACU | -2.74 ± 0.11 | -0.995 ± 0.09 |
| UUUCAGCAAUAUUACGCUCA | -0.608 ± 0.17 | 0.404 ± 0.18 |
| UUGCAGCAAUAUUACGCGCA | -1.84 ± 0.14 | -0.231 ± 0.18 |
| GUCGAGCAAUAUUACGUCCC | -1.03 ± 0.19 | -0.687 ± 0.33 |
| UACCAGCAAUAUUACGAACA | -0.482 ± 0.096 | -0.258 ± 0.12 |
| ACGCAGCAAUAUUACGAACC | -1.99 ± 0.16 | -0.986 ± 0.26 |
| CUUUAGCAAUAUUACGUCCA | -3.2 ± 0.41 | -0.864 ± 0.24 |
| ACUGAGCAAUAUUACGCACU | -0.721 ± 0.13 | -0.386 ± 0.17 |
| AUGAAGCAAUAUUACGCAAA | -2.25 ± 0.17 | -1.31 ± 0.17 |
| GGAUAGCAAUAUUACGGUCC |  | -2.68 ± 0.48 |
| GUGGAGCAAUAUUACGUCGA | -3.42 ± 0.37 | -1.48 ± 0.3 |
| UAGUAGCAAUAUUACGUGGG | -3.26 ± 0.25 | -1.41 ± 0.17 |
| UGGCAGCAAUAUUACGUACU | 0.384 ± 0.091 | 0.181 ± 0.12 |
| CUGCAGCAAUAUUACGUGUC | -4.46 ± 0.28 | -2.79 ± 0.29 |
| GCUAAGCAAUAUUACGGGCA | -1.52 ± 0.098 | -1.11 ± 0.13 |
| CAAUAGCAAUAUUACGAGGG | -3.54 ± 0.16 | -0.649 ± 0.13 |
| GGUCAGCAAUAUUACGGGUA | -1.57 ± 0.12 | -0.686 ± 0.1 |
| CACCAGCAAUAUUACGAGUG | -4.21 ± 0.18 | -2.76 ± 0.17 |
| GUACAGCAAUAUUACGUCGU | -1.34 ± 0.11 | 0.338 ± 0.11 |
| GGUGAGCAAUAUUACGACUA | -0.202 ± 0.17 | -0.327 ± 0.17 |
| CAUGAGCAAUAUUACGAAGG | -3.17 ± 0.19 | -2.05 ± 0.21 |

| Sequence | self-splicing fitness (ln) (30 °C) | self-splicing fitness (ln) (37 °C) |
| --- | --- | --- |
| AGCGAGCAAUAUUACGCUGA | -3.2 ± 0.18 | -2.51 ± 0.18 |
| CAAGAGCAAUAUUACGGACU |  | -2.75 ± 0.28 |
| CUAAAGCAAUAUUACGCUCU | -2.94 ± 0.41 |  |
| AGAAAGCAAUAUUACGGACA | -0.632 ± 0.2 | -0.869 ± 0.29 |
| UAUAAGCAAUAUUACGACUA | 0.0842 ± 0.075 | 0.29 ± 0.094 |
| UUUUAGCAAUAUUACGAUCG | -0.15 ± 0.26 |  |
| CCGUAGCAAUAUUACGUUUU | -4.21 ± 0.23 | -2.87 ± 0.22 |
| GCGCAGCAAUAUUACGGGAA | -1.92 ± 0.086 | -0.883 ± 0.066 |
| UGCUAGCAAUAUUACGGCCA | -0.186 ± 0.11 | -0.178 ± 0.15 |
| AACUAGCAAUAUUACGUGCU | -2.24 ± 0.083 | -1.97 ± 0.12 |
| GCACAGCAAUAUUACGGGAU | -1.01 ± 0.073 | -1.02 ± 0.087 |
| UAGGAGCAAUAUUACGAGCC | -3.1 ± 0.3 | -2.82 ± 0.47 |
| ACACAGCAAUAUUACGGGUC | -4.34 ± 0.21 | -2.17 ± 0.13 |
| UGCGAGCAAUAUUACGGACU |  | -1.12 ± 0.34 |
| ACACAGCAAUAUUACGUAGG | -2.48 ± 0.087 | -1.64 ± 0.09 |
| UGCAAGCAAUAUUACGGUCG | -0.179 ± 0.073 | 0.595 ± 0.088 |
| UGAAAGCAAUAUUACGUCAU | -4.25 ± 0.22 | -1.77 ± 0.14 |
| CUGCAGCAAUAUUACGCACG | -1.03 ± 0.047 | -0.409 ± 0.069 |
| ACAAAGCAAUAUUACGAUAA | -1.38 ± 0.086 | -1 ± 0.1 |
| AGGUAGCAAUAUUACGUAAA | -2.285 ± 0.018 | -1.39 ± 0.034 |
| CGGUAGCAAUAUUACGGAGC | -3.01 ± 0.33 | -2.91 ± 0.34 |
